The data set deals with the molecule itself. Description: SEC; oligomeric fractions, 15-20 µM protein, incubated 10 min at room temperature in buffer only (20 mM PIPES, 0.8 mM MgCl2, pH 7.0), then passed again through Superdex 200 10/300 GL. A general note: SEC sorts molecules by how far they enter the pores of the column.

B1: FAD synthetase from Corynebacterium ammoniagenes, wild type (enzyme)
chain: MDIWYGTAAVPKDLDNSAVTIGVFDGVHRGHQKLINATVEKAREVGAKAIMVTFDPHPVSVFLPRRAPLGITTLAERFALAESFGIDGVLVIDFTRELSGTSPEKYVEFLLEDTLHASHVVVGANFTFGENAAGTADSLRQICQSRLTVDVIDLLDDEGVRISSTTVREFLSEGDVARANWALGRHFYVTGPVVRGAGRGGKELGFPTANQYFHDTVALPADGVYAGWLTILPTEAPVSGNMEPEVAYAAAISVGTNPTFGDEQRSVESFVLDRDADLYGHDVKVEFVDHVRAMEKFDSVEQLLEVMAKDVQKTRTLLAQDVQAHKMAPETYFLQAES
notes: Bifunctional FAD synthetase (N-terminal FMNAT module, C-terminal RFK module) from Corynebacterium ammoniagenes, CaFADS; Plasmid pET28a-CaFADS; The size of the oligomers was not resolved by gel filtration; also called CaFADS; WT CaFADS; source: E. coli BL21(DE3), purified (20% ammonium sulfate fractionation, phenyl-sepharose, DEAE-cellulose)
As to B1, the monomer/oligomer ratio is roughly 0.8.

For the origin of these results see paper PMC5428420, “The trimer interface in the quaternary structure of the bifunctional prokaryotic FAD synthetase from Corynebacterium ammoniagenes” (Scientific Reports, 2017).
